As a reminder, the Kd is the constant that tells how readily two partners part at equilibrium.

Several values for one entry are separate records, joined by “and”; a condition that tells them apart may be missing. Identical values can stand only once.

Holding throughout (test): SPRi
Common to all, as to conditions: 5' disulfide, aptamer on gold chip, 10 mM HEPES, 120 mM NaCl, 10 mM KCl, 5 mM MgCl2, pH 7.4, targets in PBS with 0.1% Tween, random-DNA signal subtracted, temperature …

The target of series [1] is LF-LDL (LDL subfraction particle; ApoB100 lipoprotein) (UniProt P04114).
In the next series the test system is HDL particle.
Series [2] addresses SD-LDL (small dense LDL particle; ApoB100 lipoprotein) (UniProt P04114).
The target in series [3] is LDL particle (all LDL-P; ApoB100 lipoprotein) (UniProt P04114).
For series [4] the target is unchanged. This is another data set of the same source.

For the sequence “AACTACATGGTATGTGGTGAACTACCTCGATTTTATATTATTTCGCTTACCAACAACTGCAGAGACGTACAATGTACCC [LDL-A1]”, the Kd in series [1] came to 0.0327 nM; in the series on HDL particle, 8.26 nM; in series [2], 0.302 nM; in series [3] it was 0.0531 nM; in series [4] it was 0.0214 nM.
Regarding “AACTACATGGTATGTGGTGAACTAAACCATTCTTGTCTCGCATTTTTCTCTTTTATATTATTTGACGTACAATGTACCC [LDL-A38]”, the Kd was 11.5 nM in the series on HDL particle; 0.234 nM in series [2]; 0.0455 nM in series [3]; 0.0207 nM and 0.0178 nM in series [4].
Regarding “AACTACATGGTATGTGGTGAACTGTCAGCTTCTTCTATATAATTCACCTTGCCTCTCGTTCCTGACGTACAATGTACCC [LDL-A2]”, the Kd in series [1] is 0.0159 nM; in the series with HDL particle it was 7.25 nM; in series [3], 0.0421 nM; in series [4], 0.015 nM and 0.00512 nM.
Regarding “AACTACATGGTATGTGGTGAACTAACCTTAATTTACCCTTGTTTTATCATTTCCATCATAGCTGACGTACAATGTACCC [LDL-A12]”, the Kd was 9.69 nM in the series on HDL particle; 0.023 nM in series [2]; 0.0497 nM in series [3]; 0.0108 nM and 0.0466 nM in series [4].

The record behind these values is article PMC6181373.
